From patent publication US8106168B2, “Metalloproteinase binding proteins” (Dyax Corp., priority 2005, dated 2012)

How the values were obtained:
[1] = target: T1, MMP-14 (Homo sapiens, UniProt P50281); experiment: Selection and phage ELISA screening of anti-MMP-14 Fabs; assay type: binding; conditions: Fab from FAB310 phage display library
Outline: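 The FAB310 phage library was panned on biotinylated MMP-14, alone or complexed with bead-bound TIMP-2, at 500 nM and then 100 nM over three rounds. Phage was eluted with 2.5 μM TIMP-2, then 100 mM TEA. For ELISA, 95 clones per round were screened against 1 μg/ml biotinylated MMP-14 captured on streptavidin in TRIS/5 mM CaCl2, pH 7.5.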

[2] = target: T2, MMP-16 (Homo sapiens, UniProt P51512); experiment: Cross-reactivity of Fabs with MMP-16 (Example 9); assay type: biochemical; parameters: key: X: Do not inhibit MMP-16 or MMP-24 at [I] = 100 nM level; Y: partially inhibit at [I] = 100 nM level; conditions: Fab, 100 nM final inhibitor concentration, 5 nM MMP-16
Protocol: (§1) For the studies summarized in Table 15, 1 μM of anti-MMP-14 Fab/IgG (100 nM final inhibitor concentration) were incubated with 5 nM of MMP-16 or 5 nM of MMP-24 for 30 minutes at 30° C., 10 μM of substrate was added, and the MMP-16 activity was measured.

[3] = target: T1, MMP-14; experiment: IC50 for MMP-14 inhibition by Fabs and IgGs; assay type: biochemical; conditions: Fab
Protocol: MMP-14 binding proteins can be characterized in assays that measure their modulatory activity toward MMP-14 or fragments thereof in vitro or in vivo. For example, MMP-14 can be combined with a substrate such as Mca-Pro-Leu-Ala-Cys(Mob)-Trp-Ala-Arg-Dap(Dnp)-NH2 under assay conditions permitting cleavage by MMP-14. The assay is performed in the absence of the MMP-14 binding protein, and in the presence of increasing concentrations of the MMP-14 binding protein. The concentration of binding protein at which 50% of the MMP-14 activity (e.g., binding to the substrate) is inhibited is the IC50 value (Inhibitory Concentration 50%) or EC50 (Effective Concentration 50%) value for that binding protein.

[4] = target: T3, MMP-24 (Homo sapiens, UniProt Q9Y5R2); experiment: Cross-reactivity of Fabs with MMP-24 (Example 9); assay type: biochemical; parameters: key to MMP-24 (cross-reactivity, class symbol): X: Do not inhibit MMP-16 or MMP-24 at [I] = 100 nM level; Y: partially inhibit at [I] = 100 nM level; conditions: Fab, 100 nM final inhibitor concentration; 5 nM MMP-24
Protocol: as §1

[5] = target: T2, MMP-16; experiment: Cross-reactivity of Fabs and IgGs with MMP-16 (Example 8); assay type: biochemical; parameters: key to MMP-16 (cross-reactivity, class symbol): X: Does not inhibit MMP-16 at [I] = 100 nM level; conditions: 5 nM MMP16, 30 minutes at 30° C., 10 μM substrate
Protocol: For the studies summarized in Tables 13 and 14, 100 nM anti-MMP-14 Fab/IgG were incubated with 5 nM MMP16 for 30 minutes at 30° C., 10 μM of substrate was added, and the MMP-16 activity was measured.

[6] = target: T3, MMP-24; experiment: Cross-reactivity of anti-MMP-14 IgGs, enzymatic activity: MMP-24; assay type: biochemical; conditions: 1 μM anti-MMP-14 IgG
Protocol: (§2) The cross-reactivity of exemplary anti-MMP-14 IgGs and Fabs with other human MMPs and TACE (TNF-alpha converting enzyme) was examined. MMP and TACE enzymatic activity was monitored in the absence and presence of 1 μM anti-MMP-14 IgG antibody. Inhibition (Y) of activity ranged from approximately 50-80% of the reaction rate observed in the absence of antibody. “X” indicates no inhibition was observed. Cross-reactivity was not determined for MMP-17 because protein activity could not be detected.
(§3) For the studies summarized in Table 12, six anti-MMP-14 IgGs were selected for cross-reactivity testings: M0043-G02, M0040-A06, M0037-D01, M037-C09, M0038-F01, M0033-H07.

[7] = target: T2, MMP-16; experiment: Cross-reactivity of anti-MMP-14 IgGs, enzymatic activity: MMP-16; assay type: biochemical; conditions: 1 μM anti-MMP-14 IgG
Protocol: as §2, §3

T3 sequence (Q9Y5R2 156-645): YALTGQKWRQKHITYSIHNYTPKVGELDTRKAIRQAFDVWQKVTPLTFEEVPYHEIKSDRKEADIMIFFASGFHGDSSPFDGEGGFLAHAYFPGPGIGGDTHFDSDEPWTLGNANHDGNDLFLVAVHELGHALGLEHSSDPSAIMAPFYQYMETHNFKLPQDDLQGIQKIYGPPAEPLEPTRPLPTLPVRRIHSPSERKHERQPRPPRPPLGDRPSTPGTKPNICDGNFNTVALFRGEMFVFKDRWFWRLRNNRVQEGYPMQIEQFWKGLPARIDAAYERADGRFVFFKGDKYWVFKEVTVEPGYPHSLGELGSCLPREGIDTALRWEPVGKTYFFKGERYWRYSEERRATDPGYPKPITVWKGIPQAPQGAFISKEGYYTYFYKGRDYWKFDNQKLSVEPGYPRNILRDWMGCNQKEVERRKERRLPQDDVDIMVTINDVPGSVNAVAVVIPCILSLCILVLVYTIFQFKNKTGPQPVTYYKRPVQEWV
T2 sequence (P51512 120-607): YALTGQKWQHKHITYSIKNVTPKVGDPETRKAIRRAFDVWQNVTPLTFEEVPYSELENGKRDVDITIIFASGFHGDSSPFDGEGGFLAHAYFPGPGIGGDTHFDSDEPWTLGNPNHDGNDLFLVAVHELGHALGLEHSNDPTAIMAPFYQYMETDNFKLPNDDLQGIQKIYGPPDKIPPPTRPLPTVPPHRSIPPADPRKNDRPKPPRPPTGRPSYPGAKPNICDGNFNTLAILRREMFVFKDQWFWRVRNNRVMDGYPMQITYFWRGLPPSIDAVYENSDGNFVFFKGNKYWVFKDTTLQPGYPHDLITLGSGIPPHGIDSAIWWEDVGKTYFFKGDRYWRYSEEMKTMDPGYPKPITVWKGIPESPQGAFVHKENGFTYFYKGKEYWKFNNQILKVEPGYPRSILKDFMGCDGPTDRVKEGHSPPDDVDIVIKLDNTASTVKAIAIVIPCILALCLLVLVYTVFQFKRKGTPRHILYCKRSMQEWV

Molecule	bind to human MMP-14 [1]	MMP-16 (cross-reactivity, class symbol) [2]	bind to and inhibit human MMP-14 [3]	MMP-24 inhibition [4]	MMP-16 (cross-reactivity, class symbol) ([5]; Fab 100 nM)	MMP-16 (cross-reactivity, class symbol) ([5]; IgG 100 nM)	MMP-24 (cross-reactivity, class symbol) [4]	Cross reactivity: inhibition of MMP-24 activity [6]	Cross reactivity: inhibition of MMP-16 activity [7]
M0037-C09: human antibody (Fab, IgG) that binds and inhibits MMP-14; HC SEQ ID NO: 150, LC SEQ ID NO: 151 (antibody, V domains shown, Synthetically generated peptide) VH: EVQLLESGGGLVQPGGSLRLSCAASGFTFSHYEMFWVRQAPGKGLEWVSSISPSGGQTHYADSVKGRFTISRDNSKNTLYLQMNSLRAEDTAVYYCATDRTYYDFWSGYGPLWYWGQGTLVTVSS VL: QDIQMTQSPLSLPVTLGESASVSCRSSQSLLHENGHNYLDWYLQKPGQSPQLLIYLGSNRASGVPDRFSGSGSGTDFTLKISRVEAEDVGVYYCMQSLKTPPTFGPGTKVEIK	bind to human MMP-14	X	bind to and inhibit human MMP-14	Y 72% inhibition	X	X		Y (Inhibition (Y) of activity ranged from approximately 50-80% of the reaction rate observed in the absence of antibody)	Y (Inhibition (Y) of activity ranged from approximately 50-80% of the reaction rate observed in the absence of antibody)
M0031-C02: human antibody (Fab, IgG) that binds and inhibits MMP-14; HC SEQ ID NO: 144, LC SEQ ID NO: 145 (antibody, V domains shown, Synthetically generated peptide) VH: EVQLLESGGGLVQPGGSLRLSCAASGFTFSPYPMGWVRQAPGKGLEWVSSIVSSGGLTLYADSVKGRFTISRDNSKNTLYLQMNSLRAEDTAVYYCARGGRLYDILTGQGAPFDYWGQGTLVTVSS VL: QDIQMTQSPLSLPVTPGEPASISCRSSQSLLHSNGYYYLDWYLQKPGQSPQLLIYLGSYRASGVPDRFSGSGSGTDFTLKISSVEAEDVGVYYCMQALQTPLTFGGGTRVDIK	bind to human MMP-14	X	bind to and inhibit human MMP-14	Y 54% inhibition	X	X			
M0037-D01: human antibody (Fab, IgG) that binds and inhibits MMP-14; HC SEQ ID NO: 152, LC SEQ ID NO: 153 (antibody, V domains shown, Synthetically generated peptide) VH: EVQLLESGGGLVQPGGSLRLSCAASGFTFSMYMMIWVRQAPGKGLEWVSSIYPSGGNTMYADSVKGRFTISRDNSKNTLYLQMNSLRAEDTAVYYCATGVLRYFDWDAGSGMDVWGQGTTVTVSSLC VL: QDIQMTQSPSSLSASVGDRVTITCRASQGIRNDLGWYQQKPGKAPKRLIYVASSLQSGVPSRFSGSGSGTEFTLTISSLQPEDFATYYCLQHNSYPWTFGQGTKVEIK	bind to human MMP-14	X	bind to and inhibit human MMP-14	Y 71% inhibition	X	X		Y (Inhibition (Y) of activity ranged from approximately 50-80% of the reaction rate observed in the absence of antibody)	Y (Inhibition (Y) of activity ranged from approximately 50-80% of the reaction rate observed in the absence of antibody)
M0032-B09: Fab that binds human MMP-14; DNA LV SEQ ID NO: 22, HV SEQ ID NO: 23 (antibody, V domains shown, Synthetically generated oligonucleotide) VH: EVQLLESGGGLVQPGGSLRLSCAASGFTFSIYKMVWVRQAPGKGLEWVSSIGSSGGHTRYADSVKGRFTISRDNSKNTLYLQMNSLRAEDTAVYYCARAPYYYYMDVWGKGTTVTVSS VL: QDIQMTQSPSSVSASVGDTVTITCRASQGISTWLAWYQHKPGKAPKLLIYAGPSLQSGVPSRFSGSGSGTEFTLTISSLHPEDFATYYCQQLNHYPMTFGQGTRLEIK	bind to human MMP-14								

Second part, led by results:

bind to human MMP-14 [1]	MMP-16 (cross-reactivity, class symbol) [2]	bind to and inhibit human MMP-14 [3]	MMP-24 inhibition [4]	MMP-16 (cross-reactivity, class symbol) ([5]; Fab 100 nM)	MMP-16 (cross-reactivity, class symbol) ([5]; IgG 100 nM)	MMP-24 (cross-reactivity, class symbol) [4]	Molecule	Cross reactivity: inhibition of MMP-24 activity [6]	Cross reactivity: inhibition of MMP-16 activity [7]
bind to human MMP-14	X	bind to and inhibit human MMP-14	Y 58% inhibition	X	X		M0040-A11: human antibody (Fab, IgG) that binds and inhibits MMP-14; HC SEQ ID NO: 164, LC SEQ ID NO: 165 (antibody, V domains shown, Synthetically generated peptide) VH: EVQLLESGGGLVQPGGSLRLSCAASGFTFSHYVMFWVRQAPGKGLEWVSRIVPSGGATMYADSVKGRFTISRDNSKNTLYLQMNSLRAEDTAVYYCARDRPLYDSSGYVDYWGQGTLVTVSS VL: QSALTQPPSASGSPGQSVTISCTGTSSDVGAYNYVSWYQQHPDKAPKLIIYNVNERPSGVPDRFSGSKSGNTASLTVSGLQAEDEADYYCTSYAGSNKIGVSGTGTKVTVL		
bind to human MMP-14	X	bind to and inhibit human MMP-14		X	X	X	M0038-E06: human antibody (Fab, IgG) that binds and inhibits MMP-14; HC SEQ ID NO: 154, LC SEQ ID NO: 155 (antibody, V domains shown, Synthetically generated peptide) VH: EVQLLESGGGLVQPGGSLRLSCAASGFTFSPYVMHWVRQAPGKGLEWVSSISPSGGWTYYADSVKGRFTISRDNSKNTLYLQMNSLRAEDMAVYYCARGTGAYGMDVWGQGTTVTVSS VL: QDIQMTQSPGTLSLSPGDRATLSCGASQLVVSNYIAWYQQKPGQAPRLLMYAGSIRATGIPDRFSGSGSGTDFTLTISRLEPEDFAIYYCQQRSNWPWTFGQGTKVEIK		
